Laboratory results taken from the supplement of paper PMC12042874.
± gives the uncertainty stated by the source.

Assay: amyloid nucleation score (Sup35N fusion, yeast selection) (log enrichment); library NNK3; higher = more nucleation; inactive = no reads after selection
Summary of the method: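 The nucleation score, computed with DiMSum, is the log enrichment of output over input reads, centred on the mode score of non-aggregating sequences. Sequences with under 100 input reads were dropped. Reads were generated by Illumina sequencing of plasmid inserts from psi-negative yeast with Sup35N fused to peptides of 20 random codons, induced with 100 μM copper sulfate for 24 hours and grown 7 days at 30°C on medium lacking adenine and uracil.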

Substance | amyloid nucleation score
EISTVLNLHVRRIAGRFVMK | inactive
EIVSWVDHFYWTWTGYHKCW | -0.886 ± 1
EKANLLIWDFKKDMLRTVGG | inactive
EKLIIELLCTT | inactive
EKSCCCSVKI | inactive
EKWQKDLSNKHVRNAVVAWS | inactive
ELEYAHVIRGKKRCHSSRVV | inactive
ELFDERQRLEPI | inactive
ELGHSKSTMFNVYYVVWSRC | inactive
ELLGGLSLLGMSIFVLLSSL | inactive
ELLWGPMGSNWKSLVVYFSH | inactive
ELSACCYAMSWMVDCVRASL | 1.34 ± 0.1
ELSHQVCYSVGCACETSDGQ | inactive
ELVGIIDGCLKNMSSFTMRV | inactive
EMDTCIQWLSRVLSGPDSFF | -0.72 ± 0.8
EMEASRG | inactive
EMLCVDYWTFGYMVLREVTI | inactive
EMLGHHVGSLINRRVITVLR | inactive
EMLSIENGRFTKCKLGECVR | -0.137 ± 0.52
ENSSLFFLRDCELWWNVRTR | 1.59 ± 0.094
EPITASYMRILNCACVAYCG | inactive
EQVFRYIL | inactive
ERDFLF | inactive
ERESKNLLQVAYSGYCIVWA | inactive
ERFIKN | inactive
ERFRSLSGTVEEG | inactive
ERGGSTFCSTYFTVLKHRSG | inactive

Substance | amyloid nucleation score
ERLIPLPHISVIS | inactive
ERNFPGLFIQLVHLQPEARM | 0.631 ± 0.34
ERRIKDLTECSNR | inactive
ESDAFKLCAYDLNIMNISRF | inactive
ESFVGEGDRSWSGHGNFITV | inactive
ESGNS | inactive
ESRKWAAEGPSFICTCLLSL | inactive
ESSLWYI | inactive
ESTGMPTALYSLAVTVRVDK | 0.016 ± 0.33
ESVGLISWFRVPIYSN | inactive
ESVRRMLLTLGAHWGSPIHF | inactive
ESYTWL | inactive
ETAGMGTPSVRAHGLASGSV | -0.672 ± 1.8
ETLYSCQKGGQRQRKAG | inactive
ETNQSMY | 1.51 ± 0.075
ETPSALCILYVFYCHAYWSH | inactive
ETVGAPRSLYYST | inactive
ETWEIGRSKMGHRDCFCNYM | inactive
ETYWQINSTECKFTSFQRLF | inactive
EVCLGVSGRHGANSVVIDWT | inactive
EVCWVSEWQLIVMRFSCTWL | inactive
EVGLRSLMFHSGQGIRMYNY | inactive
EVHLSINEINLYVIEDEGSL | 0.013 ± 0.32
EVPLDVAVKGRLW | inactive
EVPNFYNLPSWSA | inactive
EVRLLGYLVTRNDM | inactive
EVYDLESGVSITYMCMCVVL | inactive

Substance | amyloid nucleation score
EVYMFFSCPSSNHVWDSRYV | inactive
EWFEKIFIRLTGHRTKFYNS | inactive
EWKWQSKHTITYFLHHCSEH | 0.534 ± 0.15
EYIAI | inactive
EYQLYCVYHLYANLDTVVRT | inactive
FAIFGSWPKFFSCTP | 0.378 ± 0.41
FALNL | inactive
FALSVVQG | inactive
FANQPGVNYRFTPPSCCFLT | inactive
FARVRVNISFPISKSFCNIM | 2.34 ± 0.083
FCALALTQMLINMAH | inactive
FCCHYSKLFRR | 0.641 ± 0.41
FCDALMIVTEFGEGLWARWR | inactive
FCEFDIDVVLCTHRLYCNRY | inactive
FCEFWYLNSRKEATELRP | inactive
FCEMHYRLDN | 0.424 ± 0.17
FCFSSVEKNWLQRVMFLRVS | inactive
FCLYTKLNVSIRGISDAYVY | inactive
FCRPNSWI | 0.53 ± 0.38
FDFKAYESCCSLLRYLMDPW | inactive
FDIFQGDINLHFLDVNITR | 0.397 ± 0.75
FDLEMSSGFPTIELWMR | inactive
FDLWFIRIGV | -0.221 ± 0.46
FDMFVLGMGCGILQYLICFK | inactive
FDSDRCIMCLTHLWILWGLR | inactive
FDTYTLSNTF | inactive
